Patent US20250206828A1, “ANTI-ADENOSINE RECEPTOR (A2aR) ANTIBODIES AND THE USE THEREOF” (Adept Therapeutics Inc., priority 2022, published 2025)
Residue numbers refer to the chain shown, from its start.

B1: Hu3F6-H3/Hu3F6-L5: humanized anti-A2aR IgG1 FES antibody; HCVR SEQ ID NO:60, LCVR SEQ ID NO:80 (antibody, V domains shown)
VH: EVQLVQSGAEVKKPGASVKVSCKTSGFAFTSYWMNWVRQAPGQGLEWIGRIDPSDSEAHYHHKFWGRATLTVDTSSSTVYMELSSLRSEDTAVYYCLRSLYGKGDYWGHGTTVTVSS
VL: DVVMTQTPLSLSVTPGQPASISCRSSQSLVHRNGNTYLEWYLQKPGQSPQLLIYKVSNRFSGVPDRFSGSGSGTDFTLKISRVEAEDVGVYYCYQGSHVPLTFGGGTKVEIK
B2: Hu3F6-H5/Hu3F6-L5: humanized anti-A2aR IgG1 FES antibody; HCVR SEQ ID NO:62, LCVR SEQ ID NO:80 (antibody, V domains shown)
VH: B1 VH with H61A, T74K
VL: B1 VL

Assays:
[1] = biological target: human A2aR-expressing HEK293 cells (Homo sapiens, UniProt P29274); assay: Flow cytometry based internalization assay; assay type: cell-based; details: 1, 0.5 and 0.25 μg/ml, 1, 2 and 4 hours at 37° C.
Experimental: 2×10^5/well freshly cultured human A2aR-expressing HEK293 cells (BPS Bioscience) were incubated with antibodies to be tested at indicated concentration (1, 0.5 and 0.25 μg/ml) on ice for 45 minutes. Parental 3F6 were used as positive control. After wash with FACS buffer, samples were split into 4 sets. One set of samples were maintained on ice. The other three sets of samples were left in 37° C., 5% CO2 incubator for further incubation for 1, 2 and 4 hours. All four sets of samples were followed by staining with PE-conjugated goat-anti-human Fc antibody (1:400, Jackson Immuno Research, Cat. 109-116-098) for 30 minutes, and then washed with cold FACS buffer, cells were then stained with 1:100 diluted 7−AAD (Biolegend) and then fixed with 2% of paraformaldehyde (diluted from 10% paraformaldehyde (MilliporeSigma, Cat. R04586)). All samples were analyzed on Guava 11HT or 5HT (Luminex). The mean fluorescence intensity (MFI) was obtained and data was analyzed using Flowjo software. Internalization rate was calculated as: […]

[2] = biological target: T1, human A2aR on the cell surface of human PBMCs (Homo sapiens, UniProt P29274); assay: Binding of anti-A2aR antibodies to human PBMC subsets (CD4 T, CD8 T, NK, NKT cells; FACS); details: for binding to human T cells (CD4, CD8), NK cells and NKT cells: human PBMCs, FACS
T1 construct: host or cells: human PBMCs (CD4 T, CD8 T, NK, NKT subsets)
Experimental: Human and cynomolgus PBMCs were purchased from Cytologics LLC (San Diego, CA) and iQ Biosciences (Berkeley, CA), respectively. 10^6 human and/or cynomolgus PBMCs in 100 μl FACS buffer (1×DPBS, 2% FBS) were incubated with anti-A2aR antibodies at 4° C. for 30 minutes. After wash, samples were stained with PE-conjugated goat-anti-human Fc antibody (1:400, Jackson ImmunoResearch Labs, Cat. 109-116-098) and other surface markers using cynomolgus cross-reactive APC/cy7-anti-CD3 (BD Bioscience, Cat. 557757), BV421-anti-CD4 (Biolegend, Cat. 317433), BV650-anti-CD8 (Biolegend, Cat. 301042) and BV711-anti-CD56 (BD Bioscience, Cat. 742661) for 30 minutes, and Zombie Green fixable Viability dye (Biolegend, Cat. 423111) were used according to manufacturer's instruction to define live immune cell subsets. After wash with FACS buffer, cells were analyzed on FACSAria (BD). Data was analyzed using Flowjo (Becton Dickinson).

[3] = test system: human PBMCs (CD4 T, CD8 T, NK cells); assay: Restoration of IFN-γ and IL-2 production of NECA-suppressed T cells and NK cells (intracellular cytokine staining); assay type: cell-based; details: for % of cells IFNγ+, CD4 T cells / % of cells IFNγ+, CD8 T cells / % of cells IFNγ+, NK cells / % of cells IL-2+, CD4 T cells / % of cells IL-2+, CD8 T cells: NECA, test substance 1 μg/ml; for restored production of IFN-γ and IL-2 by NECA-suppressed CD8 T cell: compared with AB928, CPI-444 and AZD4635; for restored production of IFN-γ and IL-2 by NECA-suppressed NK cells: compared with the tested small molecule inhibitors
Experimental: Two hundred thousand (2×10^5) human peripheral blood mononuclear cells (PBMCs) human PBMC in complete IMDM medium were aliquoted into each well in a 96-well plate and the cells in the 96-well plate were pre-incubated with antibodies or small molecule inhibitors at indicated concentration for 90 minutes, followed by addition of T cell activator anti-CD3/28 dynabeads (Gibco, Cat #11132D) at ratio of 1:4 (Beads: PBMC, v/v) and NECA (DiscoverX, Cat #92-1191, final concentration […]). Cells were cultured in an incubator at 37° C., 5% CO2 for 24 hours. Cells were then collected and stimulated with anti-CD3/28 dynabeads in the presence of GolgiPlug™ Protein Transport Inhibitor (BD Biosciences, Cat #555028) according to manufacturer's manual for 4 hours. Thereafter, cells were incubated with human TruStain FcX block (Biolegend, Cat #422302) and True-Stain monocyte blocker (Biolegend, Cat #426103) for 15 minutes according the manufacturer's manual, and cells were then stained with surface markers PE-anti-CD4 (Biolegend, Cat #300550), PerCP-cy5.5-anti-CD8 (Biolegend, Cat #301032), APC/cy7-anti-CD3 (Biolegend, Cat #300426) and PE/cy7-anti-CD56 (Biolegend, Cat #362509), PE/cy7-anti-CD56 (Biolegend, Cat #362509), BV711-anti-CD25 (Biolegend, Cat #302636) and BV605-anti-CD69 (Biolegend, Cat #31938 After wash with FACS buffer, cells were stained with BV421-anti-IFN-γ (BD Bioscience, Cat #562988) and APC anti-IL-2 (BD Bioscience, cat #551383) using intracellular cytokine staining kit (BD Biosciences, cat #555028) following manufacturer's instruction. Stained samples were analyzed on FACSAria III machine. Data were analyzed using Flowjo software.

[4] = test system: human PBMCs (CD4 T, CD8 T, NK cells); assay: as above; assay type: cell-based; details: anti-CD3/28 Dynabeads activated, 0.1 μM NECA; for restoring IFN-γ production in human CD4 T suppressed by NECA (FIG. 5A): compared with AB928, AZD4635 and CPI-444; for restoring IL-2 production in human CD4 T suppressed by NECA (FIG. 5B): compared with AZD4635 and CPI-444

T1 sequence (P29274 whole entry): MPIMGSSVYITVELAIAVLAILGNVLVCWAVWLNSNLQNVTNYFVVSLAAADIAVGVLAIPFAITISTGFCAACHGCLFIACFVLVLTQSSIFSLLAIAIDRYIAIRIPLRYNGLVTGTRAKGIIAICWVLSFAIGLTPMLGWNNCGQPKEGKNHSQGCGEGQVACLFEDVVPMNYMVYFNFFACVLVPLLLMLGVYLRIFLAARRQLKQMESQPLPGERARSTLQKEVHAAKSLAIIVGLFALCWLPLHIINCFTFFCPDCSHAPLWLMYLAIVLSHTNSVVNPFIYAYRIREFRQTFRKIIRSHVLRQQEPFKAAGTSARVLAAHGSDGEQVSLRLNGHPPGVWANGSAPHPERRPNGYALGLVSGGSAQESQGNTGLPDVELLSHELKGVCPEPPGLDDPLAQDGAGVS
human A2aR-expressing HEK293 cells, sequence (P29274 whole entry): as above

Row | Molecule | internalization upon binding to cell surface A2aR (percentage of internalization, FIG. 2) [1] | % of A2aR+ CD8+ T cells ([2]; human 1 PBMC) | % of A2aR+ NK cells ([2]; human 1 PBMC) | % of A2aR+ NKT cells ([2]; human 1 PBMC) | % of A2aR+ CD8+ T cells ([2]; human 2 PBMC) | % of A2aR+ NK cells ([2]; human 2 PBMC) | % of A2aR+ NKT cells ([2]; human 2 PBMC) | binding to human T cells (CD4, CD8), NK cells and NKT cells [2] | % of cells IFNγ+, CD4 T cells [3] | % of cells IFNγ+, CD8 T cells [3] | % of cells IFNγ+, NK cells [3] | % of cells IL-2+, CD4 T cells [3] | % of cells IL-2+, CD8 T cells [3] | restored production of IFN-γ and IL-2 by NECA-suppressed CD8 T cell [3] | restored production of IFN-γ and IL-2 by NECA-suppressed NK cells [3] | restoring IL-2 production in human CD4 T suppressed by NECA (FIG. 5B) [4] | also measured
1 | B1 | induce internalization upon binding to cell surface A2aR | 0.04% | 0.69% | 0.46% | 0.04% | 0.75% | 0.55% | bound to various human and cynomolgus CD4+ and CD8+ T cells | 4.35% | 14.1% | 17.8% | 13.4% | 3.29% | restored production of IFN-γ and IL-2 by NECA-suppressed CD8 T cell, with higher potency | restored production of IFN-γ and IL-2 by NECA-suppressed NK cells, with a potency higher | can restore the intracellular IFN gamma and IL2 production | % of A2aR+ CD4+ T cells ([2]; human 1 PBMC): 0.43%; % of A2aR+ CD4+ T cells ([2]; human 2 PBMC): 0.44%; restoring IFN-γ production in human CD4 T suppressed by NECA (FIG. 5A) ([4]; listed as Hu3F6-VH3/Hu3F6-VL5): higher potency in restoring IFN-γ production; restoring IFN-γ production in human CD4 T suppressed by NECA (FIG. 5A) ([4]; listed as Hu3F6-VH3/VL5): can restore the intracellular IFN gamma and IL2 production
2 | B2 | induce internalization upon binding to cell surface A2aR | 0.05% | 0.66% | 0.42% | 0.03% | 0.62% | 0.48% | bound to various human and cynomolgus CD4+ and CD8+ T cells | 4.29% | 14.8% | 16.6% | 13.2% | 2.98% | restored production of IFN-γ and IL-2 by NECA-suppressed CD8 T cell, with higher potency | restored production of IFN-γ and IL-2 by NECA-suppressed NK cells, with a potency higher | can restore the intracellular IFN gamma and IL2 production | restoring IFN-γ production in human CD4 T suppressed by NECA (FIG. 5A) ([4]; listed as Hu3F6-VH5/Hu3F6-VL5): higher potency in restoring IFN-γ production; restoring IFN-γ production in human CD4 T suppressed by NECA (FIG. 5A) ([4]; listed as Hu3F6-VH5/VL5): can restore the intracellular IFN gamma and IL2 production
